Biological target: T1, 6His-She1 C-terminal fragment (residues 194 to 338) (S. cerevisiae, UniProt P38200 194-338)
T1 sequence (looked up): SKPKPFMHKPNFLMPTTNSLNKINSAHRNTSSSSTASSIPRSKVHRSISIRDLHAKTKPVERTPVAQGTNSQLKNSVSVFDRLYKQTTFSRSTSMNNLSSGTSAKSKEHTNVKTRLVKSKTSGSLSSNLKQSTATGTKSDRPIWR
Test: pull-down

binding result: binds
B1: peptide encompassing the C-terminus of Tub1 (amino acids 415-447), wild-type (peptide)
peptide: not shown

— paper doi:10.1101/2020.04.13.039982 (bioRxiv, 2020)
